System: B cells isolated from spleen
Experiment: Survival of unstimulated B cells in culture, lognormal time-to-die fit
Type: cell-based
Settings: increasing IL-4 concentration; FIG. 3D
Experimental: As indicated above, the probability distribution is determined by simulating the decreasing size of a cell population over time in the absence of cell division. For example, when naive T or B lymphocytes are purified from lymphoid tissue and placed in tissue culture without stimulation, they progressively die by apoptosis, apparently from the absence of homeostatic survival signals that are present in vivo. To determine a probability distribution representing probabilities for cell death, small resting B cells from spleen/lymphnode can be placed in culture under different conditions and their viability measured by propidium iodide uptake at step 202. Cell numbers can be counted by reference to beads, as described in Deenick.
At step 204, the two parameters of the lognormal probability distribution, namely the mean μ and standard deviation σ, are determined using a standard fitting procedure (the Matlab fmincon function) that varies μ and σ to obtain the closest match between the corresponding lognormal survival curve (i.e., the simulated ‘survival curve’ representing the decreasing size of the cell population over time, the curve being generated from a lognormal probability distribution representing probabilities for times to die with distribution parameters μ and σ) and the experimental data. […]

B1: IL-4: cytokine that affects B cell viability without stimulating cell division (protein, UniProt P05112 25-153, looked up)
Interleukin-4: HKCDITLQEIIKTLNSLTEQKTLCTELTVTDIFAASKNTTEKETFCRAATVLRQFYSHHEKDTRCLGATAQQFHRHKQLIRFLKRLDRNLWGLAGLNSCPVKEANQSTLENFLERLKTIMREKYSKCSS
  mean time to die μ: increases

Source: patent US20110131028A1, “CELL POPULATION SYSTEM AND PROCESS” (priority 2006, published 2011)
